Measured values: US11965032 (TG THERAPEUTICS, dated 2024)

Legend:
[1] = target: T1, FcγIIIA Receptor on the effector cells (human, UniProt P08637 17-254); test: cell-based or functional assay
[2] = target: T2, FcγRIIIa 158V receptor (SPR assay) (UniProt P08637 17-208, limits assumed); test: SPR, receptor immobilised
T2 construct: Immobilised on the SPR chip by amine coupling; The 158V allotype uses mature numbering
Protocol: (§1) The method follows a direct binding assay methodology where the FcγRIIIa receptor is directly immobilized onto the flow cell on a sensor chip surface and samples are injected over the chip to assess binding. […] Independent duplicates of sample dilutions are injected over the chip, followed by surface regeneration between each cycle. The binding is measured in response units (RU). The kinetics of the binding reaction is determined by measuring changes in SPR due to the increase in mass in the close proximity to the biosensor chip surface. Change in the mass of the complex as a function of time is visualized as a sensorgram.
(§2) The equilibrium dissociation constants (K_D) of each sample is determined for each receptor.

[3] = target: T3, FcγRIIIa 158F receptor (SPR assay) (UniProt P08637 17-208, limits assumed); test: SPR, receptor immobilised
T3 construct: Immobilised on the SPR chip by amine coupling
T3 sequence (P08637 17-208 limits assumed): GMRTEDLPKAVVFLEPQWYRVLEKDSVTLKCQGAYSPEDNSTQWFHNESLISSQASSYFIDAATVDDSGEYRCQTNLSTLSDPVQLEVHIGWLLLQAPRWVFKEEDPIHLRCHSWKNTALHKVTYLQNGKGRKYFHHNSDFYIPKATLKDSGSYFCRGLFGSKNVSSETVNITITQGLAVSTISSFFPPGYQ
Protocol: as §1, §2

[4] = target: T1, FcγIIIA Receptor on the effector cells; test: cell-based or functional assay; remark: listed apart in the source
[5] = target: T1, FcγIIIA Receptor on the effector cells; test: cell-based or functional assay; remark: listed apart in the source
[6] = target: C1q in the complement system (rabbit serum as the source of complement) (rabbit); test: cell-based or functional assay
HRP conjugated human C1q [7] = target: T4, HRP conjugated human C1q (human, UniProt P02745 23-245; P02746 28-253; P02747 29-245, peroxidase (HRP) conjugated; site not stated); test: ELISA, antibody coated on the plate, HRP conjugated human C1q
T4 construct: also called Peroxidase conjugated C1q
T4 sequence (P02745 23-245 limits assumed, chain 1 of 3): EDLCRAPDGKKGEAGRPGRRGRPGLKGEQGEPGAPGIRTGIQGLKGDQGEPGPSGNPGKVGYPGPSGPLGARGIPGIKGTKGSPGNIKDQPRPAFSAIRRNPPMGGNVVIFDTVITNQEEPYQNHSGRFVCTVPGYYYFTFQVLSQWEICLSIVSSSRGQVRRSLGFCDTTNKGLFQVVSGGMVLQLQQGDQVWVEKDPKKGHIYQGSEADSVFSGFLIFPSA
T4 sequence (P02746 28-253 limits assumed, chain 2 of 3): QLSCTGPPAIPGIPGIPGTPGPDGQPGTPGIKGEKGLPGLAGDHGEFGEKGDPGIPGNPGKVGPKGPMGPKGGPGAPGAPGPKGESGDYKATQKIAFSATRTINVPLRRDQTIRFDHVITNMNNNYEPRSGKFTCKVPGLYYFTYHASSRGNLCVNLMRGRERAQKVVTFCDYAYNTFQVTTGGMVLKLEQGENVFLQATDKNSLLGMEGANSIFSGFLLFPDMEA
T4 sequence (P02747 29-245 limits assumed, chain 3 of 3): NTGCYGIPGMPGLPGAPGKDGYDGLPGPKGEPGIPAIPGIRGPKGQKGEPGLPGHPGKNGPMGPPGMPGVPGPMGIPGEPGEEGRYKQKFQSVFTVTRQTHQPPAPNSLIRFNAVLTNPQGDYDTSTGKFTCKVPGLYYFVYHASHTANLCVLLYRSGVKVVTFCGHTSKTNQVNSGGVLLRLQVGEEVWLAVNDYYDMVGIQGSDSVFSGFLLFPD
Protocol: (§3) The C1q binding assay used for this analysis is an ELISA assay. Samples were coated on ELISA plates, HRP conjugated human C1q is incubated with samples on the plate. The bound HRP, in the presence of substrate TMB, generates a colorimetric signal. […] Sample dilutions are coated onto ELISA plates, and the plates incubated for 1 hour±30 min at room temperature. After coating, the plates are washed, blocked, and washed again. Peroxidase conjugated C1q was added, and the plates incubated for 1.5 hours±30 minutes at room temperature. After incubation and washing, a tetramethylbenzidine (TMB) substrate solution was added and plates incubated at room temperature for 7 minutes (~1 min/+30 seconds). This produces a colorimetric reaction which is proportional to the level of C1q bound. The reaction is stopped with the addition of 1M sulfuric acid and the color is measured at 450 nm using a Molecular Devices SPECTRAMAX® microplate reader. SOFTMAX® PRO is used to analyze the data with weighted nonlinear regression using a 4-parameter logistic fit. […] EC50 of each test sample, based on the 4-parameter logistic fitted curve, were generated for additional information.

[8] = target: T5, FcγRIIA (human Fc receptor panel, Octet) (human, UniProt P12318 36-218, limits assumed); test: BLI (Octet HTX), receptor on anti-penta-His biosensor, 1:1 model
T5 construct: Captured on anti-penta-His biosensors, so it carries a His tag
T5 sequence (looked up): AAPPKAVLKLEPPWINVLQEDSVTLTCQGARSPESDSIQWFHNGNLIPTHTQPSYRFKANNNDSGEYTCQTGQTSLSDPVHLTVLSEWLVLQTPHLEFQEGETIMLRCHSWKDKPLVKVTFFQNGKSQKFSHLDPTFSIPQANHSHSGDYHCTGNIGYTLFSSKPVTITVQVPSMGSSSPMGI
Protocol: (§4) This analysis was performed by LakePharma. Binding characterization were carried out on Octet HTX instrument at 25° C. Human Fc receptor panel were loaded onto Anti-Penta His (H1S1K) biosensors. Loaded sensors were dipped into a serial dilutions of the testing samples (300 nM start, 1:3 dilution, 7 points). Kinetic constants were calculated using a monovalent (1:1) binding model.

[9] = target: T6, FcγRIIB/C (human Fc receptor panel, Octet) (human, UniProt P31994 46-217, limits assumed); test: as above
T6 construct: Captured on anti-penta-His biosensors, so it carries a His tag
T6 sequence (looked up): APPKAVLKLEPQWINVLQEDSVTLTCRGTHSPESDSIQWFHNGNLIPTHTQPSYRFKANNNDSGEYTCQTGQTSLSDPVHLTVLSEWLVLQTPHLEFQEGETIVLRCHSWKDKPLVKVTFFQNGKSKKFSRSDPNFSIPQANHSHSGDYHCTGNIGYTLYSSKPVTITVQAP
Protocol: as §4

[10] = target: T7, FcγRIIIA F158 (human Fc receptor panel, Octet) (human, UniProt P08637 17-208); test: as above
T7 construct: Captured on anti-penta-His biosensors, so it carries a His tag; It is kept apart from the SPR receptor because the constructs may differ
T7 sequence (P08637 17-208 limits assumed): as the sequence (P08637 17-208 limits assumed) above
Protocol: as §4

[11] = target: T8, FcγRIIIA V158 (human Fc receptor panel, Octet) (human, UniProt P08637 17-208); test: as above
T8 construct: Captured on anti-penta-His biosensors, so it carries a His tag; It is kept apart from the SPR receptor because the constructs may differ; also called FcγRIIIa 158V
T8 sequence (P08637 17-208 F176V limits assumed): as the sequence (P08637 17-208 limits assumed) above, with F160V counted along it
Protocol: as §4

[12] = target: T9, FcγRIIIB (human Fc receptor panel, Octet) (human, UniProt O75015 17-200); test: as above
T9 construct: Captured on anti-penta-His biosensors, so it carries a His tag
T9 sequence (O75015 17-200 limits assumed): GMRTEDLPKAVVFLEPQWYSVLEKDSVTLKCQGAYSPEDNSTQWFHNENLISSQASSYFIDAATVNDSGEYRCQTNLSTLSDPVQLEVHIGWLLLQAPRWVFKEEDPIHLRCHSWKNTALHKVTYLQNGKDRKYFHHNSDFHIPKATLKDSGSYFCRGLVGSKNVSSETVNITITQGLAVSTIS
Protocol: as §4

[13] = target: T10, FcRn (human Fc receptor panel, Octet) (human, UniProt P55899 24-297; P61769 21-119); test: as above
T10 construct: Captured on anti-penta-His biosensors, so it carries a His tag
Protocol: as §4

[14] = target: T11, FcγRI (human Fc receptor panel, Octet) (human, UniProt P12314 16-288, limits assumed); test: as above
T11 construct: Captured on anti-penta-His biosensors, so it carries a His tag
T11 sequence (P12314 16-288 limits assumed): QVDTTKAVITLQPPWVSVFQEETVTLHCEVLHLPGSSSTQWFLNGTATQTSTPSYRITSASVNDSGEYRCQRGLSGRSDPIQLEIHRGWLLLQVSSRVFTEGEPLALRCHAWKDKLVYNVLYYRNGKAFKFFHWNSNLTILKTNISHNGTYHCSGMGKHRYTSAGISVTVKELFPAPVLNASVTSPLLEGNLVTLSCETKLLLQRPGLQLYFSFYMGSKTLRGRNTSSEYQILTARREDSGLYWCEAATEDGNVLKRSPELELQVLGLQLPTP
Protocol: as §4

[15] = target: T12, CD20 on Jeko-1, Raji and Daudi cells (human, UniProt P11836 1-297); test: flow cytometry (FACS) on Raji cells, PE conjugated anti-human secondary antibody
T12 construct: whole, on cells; also called cell surface CD20
T12 sequence (looked up): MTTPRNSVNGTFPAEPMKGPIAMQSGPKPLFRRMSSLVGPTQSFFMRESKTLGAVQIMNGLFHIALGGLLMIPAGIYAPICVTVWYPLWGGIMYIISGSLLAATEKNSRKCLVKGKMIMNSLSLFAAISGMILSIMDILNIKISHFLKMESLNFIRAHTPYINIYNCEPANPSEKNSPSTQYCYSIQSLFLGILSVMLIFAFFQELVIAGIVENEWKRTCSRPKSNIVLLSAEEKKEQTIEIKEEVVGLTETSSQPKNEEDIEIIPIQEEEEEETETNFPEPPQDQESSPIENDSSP
Protocol: (§5) A six-point dilution series of the samples, in duplicates and in the concentration range of 40 μg/ml-0 ug/ml with a dilution factor of 5 were used. Cells were incubated with sample dilutions; binding was detected using a PE conjugated anti-human secondary antibody.

[16] = target: T12, CD20 on Jeko-1, Raji and Daudi cells; test: cell-based MSD electrochemiluminescence binding assay on CD20 expressing Jeko-1 cells
[17] = target: T2, FcγRIIIa 158V receptor (SPR assay); test: SPR, receptor amine-coupled to the chip, antibody injected, 1:1 kinetics; average of 4 values
Protocol: as §1, §2

[18] = target: T12, CD20 on Jeko-1, Raji and Daudi cells; test: flow cytometry (FACS) on Daudi cells, PE conjugated anti-human secondary antibody; Daudi cells
Protocol: as §5

HRP conjugated human C1q [19] = target: T4, HRP conjugated human C1q; test: ELISA: antibody dilutions coated on the plate, HRP conjugated human C1q added, TMB, OD 450
Protocol: as §3

[20] = target: T3, FcγRIIIa 158F receptor (SPR assay); test: SPR, receptor amine-coupled to the chip, antibody injected, steady state affinity; average of 4 values
Protocol: as §1, §2

T1 sequence (P08637 17-254): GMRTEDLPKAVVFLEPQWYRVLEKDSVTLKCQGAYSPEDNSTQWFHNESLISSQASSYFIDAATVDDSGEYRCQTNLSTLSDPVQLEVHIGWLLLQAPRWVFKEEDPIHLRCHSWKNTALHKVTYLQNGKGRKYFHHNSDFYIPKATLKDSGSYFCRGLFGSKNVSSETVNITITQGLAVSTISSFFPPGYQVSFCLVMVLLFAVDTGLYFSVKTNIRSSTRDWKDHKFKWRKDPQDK
T2 sequence (P08637 17-208 F176V limits assumed): as the sequence (P08637 17-208 limits assumed) above, with F160V counted along it

ADCC EC50, fold lower than OCREVUS [1]: ~25 fold | fold higher affinity than OCREVUS [2]: ~15 fold | fold higher affinity than OCREVUS [3]: ~10 fold | ADCC EC50 (Raji target cells, KILR CD16a effector cells) [4]: 0.00242 ng/mL | EC50 of ADCC assay Using Primary NK Cells (Raji target cells, LDH release) [5]: 49000 ng/mL | CDC EC50 (Jeko-1 cells, rabbit serum complement) [6]: 670 ng/mL | EC50 (HRP conjugated human C1q [7]): 2600 ng/mL | Kd [8]: 92 nM | Kd [9]: 158 nM | Kd [10]: 56 nM | Kd [11]: 23 nM | Kd [12]: 169 nM | Kd [13]: 42 nM | Kd [14]: 20 nM | EC50 [15]: 0.00202 ng/mL | EC50 [16]: 63 ng/mL | Kd [17]: 64.1 nM | EC50 [18]: 983 ng/mL | EC50 (read off the curve) (HRP conjugated human C1q [19]): ~3000 ng/mL | Kd [20]: 680 nM
B1: TG-1101 (TG Therapeutics, Inc.) (antibody, human IgG1, kappa)
heavy: not shown
light: QIVLSQSPAILSASPGEKVTMTCRASSSVSYMHWYQQKPGSSPKPWIYATSNLASGVPARFSGSGSGTSYSFTISRVEAEDAATYYCQQWTFNPPTFGGGTRLEIKRTVAAPSVFIFPPSDEQLKSGTASVVCLLNNFYPREAKVQWKVDNALQSGNSQESVTEQDSKDSTYSLSSTLTLSKADYEKHKVYACEVTHQGLSSPVTKSFNRGEC
notes: Chimeric IgG1 made in YB2/0 rat hybridoma cells, with low-fucose N-glycans; also called ublituximab; Ubli
